From the nanobody polyreactivity screen of Harvey et al. (2022)

Assay: yeast display, Sf9 membrane polyspecificity reagent, FACS + sequencing; frameworks hold sequencing errors
Method in brief: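 Using colony PCR, genes from sorted yeast display clones were amplified, then sequenced on MiSeq at 2 × 250 and filtered by CDR length. The clones had been stained with 10% biotinylated, detergent-solubilized Sf9 membrane reagent for 1 hour at 4 °C and sorted by FACS into low and high (top ~1%) gates on anti-HA and streptavidin fluorescence. Polyreactivity labels come from the gate of origin.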

## QVQLVESGGGLVQAGGSLRLSCAASGSNFAVYAMGWYRQAPGKERELVATIRWNGGSTYYADSVKGRFTISRDNAKNTVYLQMNSLKQEDTAVYYCAKEYSTYVSKKSAYRYYYWGQGTQVTVSS
  polyreactivity (PSR sort gate): high polyreactivity

## QVQLVESGGGLVQAGGSLRLSCAASGGTFPTNAMGWYRQATGKERELVAAITSSGVRTYYADSVKGRFTISRDNAKNTVYLQLNSLKPEDTAVYYCKAVTRYVRLTDDDYWGQGTQVTVSS
  polyreactivity (PSR sort gate): high polyreactivity

## QVQLVESGGGLVQAGGSLRLRCAASGRTFYRYAMGWYRQAPGKERELVASINRGGSTNYADSVKGRFTISRDNAKNTVYLQMNSLKPEDTAVYYCACYCYCYWGQGTQVTVSS
  polyreactivity (PSR sort gate): low polyreactivity

## QVQLVESGGGLVQAGCSLRLSCAASGRIFDGNAMGWYRQAPGKERELVAAISWTGGSTYYADSVKGRFTISRDNAKNTVYLQMNSLKPEDTAVYYCAADSGWWLEQWSWYDYWGQGTQVTVSS
  polyreactivity (PSR sort gate): low polyreactivity

## QVQLVESGGGLVQAGGSLRLSCAASGLTFANYAIGWYRQAPGKERELVAAISTWSGGSTYYADSVKGRFTISRDNAKNTVYLQMNSLKPEDTAVYYCAARRYSRGRLPYDYWGQGTQVTVSS
  polyreactivity (PSR sort gate): high polyreactivity

## QVQLVESGGGLVQAGGSLRLSCAASGYTFRYAMGWYRQAPGKERELVAAISSRGSSTYYADSVKGRFTISRDNAKNTVYLQMNSLKPEDTAVYYCAAKHFVKGDYWGQGTQVTVSS
  polyreactivity (PSR sort gate): high polyreactivity

## QVQLVESGGGLVQAGGSLRLICAASGSTFELYAMGWYRQAPGKEREFVAAITYDSTYYADSVKGRFTISRDNAKNTVYLQMNSLKPEDTAVYYCAAAYWHYYYGWDMYYWGQGTQVTVSS
  polyreactivity (PSR sort gate): high polyreactivity

## QVQLVESGGGLVQAGGSLRLTCAASGIIFGENARGWYRQAPGKERELVDAINSVGSTYYADSVKGRFTISRDNAKNTVYLQMNSLKPEDTAVYYCAAESWFLRWYRYDYWGQGTQVTVSS
  polyreactivity (PSR sort gate): low polyreactivity

## QVQLVESGVGLVQARGSLRLSCAASGSIFRRNAMGWYRQAHGKERELVAAISASGGRTYADSVKGRFTISRDNSKNTVYFQMKSLNPEDKAVYYCAARCYCSSRFDYWGLGTQVTVSS
  polyreactivity (PSR sort gate): high polyreactivity

## QVQLVESGGGLVQAGGSLRLSCAASGRTFRNYAMGWYRQAPGKERELVAAIRSGVRTYYADSVKGRFTISRDNAKNTVYLQMNSLKPEDTAVYYCAVATGLLYKSHGYWGQGTQVTVSS
  polyreactivity (PSR sort gate): low polyreactivity

## QVQLVESGGGLVQAGGSLRLSCAASGRTFYRYAMGWYRQAPGKERELVAAMSRSGTTYYADSVKGRFTISRDNAQNTVYFQMNSLKPEDTALYYCAAKPAARQRGGDYWGQGTQVTVSS
  polyreactivity (PSR sort gate): high polyreactivity

## QVQLVESWGGLVQAGGSLRLSCAASGSTSVYYAMGWYRQTPGKERELVDAITWDDGSTSYADSVKGRFTISRDNAKNTVYLQMNSLKPEDTEVYYCAKDYEYLGAFNYWGQGTQVTGSS
  polyreactivity (PSR sort gate): low polyreactivity

## QVQLVESVGGLVQAGASLRLSCAASGSIFGYNPMGWYRQAPGKERELVAVINASGASTYYADSVKGRFTISRDNAKNTVYLQMNSLKPEDTAVYYCAKDPFPFPGGDYWGQGTQVTVSS
  polyreactivity (PSR sort gate): low polyreactivity

## QVQHVESGGGLVQAGGSLRLSCAASGFTFRVYAMGWYRQARGKEMELVAAISRSGGSTYYADSVKRRFTISRDNEKNTVYLQMNSLKPEDTAVYYCGGGWKRGRYDYWGQGTQVTVSS
  polyreactivity (PSR sort gate): high polyreactivity

## QVQLVESGGGLVQAGGSLRLSCAASGITFWGYVMGWYRQAPGKERELVAAISSSGGRTYYADSVKGRFTISRDNAKNTVYLQMNSLKPEDTAVYYCAAVAWQGTVQFGYWGQGTQVTVSS
  polyreactivity (PSR sort gate): high polyreactivity

## QVQLVESGGGLVQAGGSLRLSCAAYGITFRVNPMGWYRQAPGKERELVAAISRGGGSTSYADSVMGRFTISRDNAKNTFYLQMNSLKPEDTAVYFCAREPLAYYVARYDYWGQGTQVTVSS
  polyreactivity (PSR sort gate): high polyreactivity

## QVQLEESGGGLVQAGGRLRLTCAASGFIFKLYAMGWYRQAPGKERELVAAISGNGGRTYYADSVKGRFTISRDNAKNTVYLQMNSLKPEDTAVDYCAARYVGVQRYYEFDYWGQGTQVTVSS
  polyreactivity (PSR sort gate): high polyreactivity

## QVQLVESGGGLVQAGGSLRLSCAASGFTFTINAMGWYRQAPGKERELVAAINWRGGSTYYADSVKGRFTISRDNAKNTVYLQMNSLKPEDTAVYYCNAVASIYSYAYPPYWGREHLNYWGQGTQVTVSS
  polyreactivity (PSR sort gate): low polyreactivity

## QVQLVESGGGLVQAGGSLRLSCAASGSIFYDNAMGWYRQAPGKERELVAAIRGRGGSTYYADSVKGRFTISRDNAKNTVYLQMNSLKPVDTAVYYCAAERPIAVVRYYTYYYWGQGTQVTVSS
  polyreactivity (PSR sort gate): high polyreactivity

## QVQLVESGGGLVQAGGSLRLSCAASGRSFLYYAMGWYRQAPGKERELVAAIRRGSSTYYADSVKGRFTISRDNAKNTVYLQMNSLKPEDTAVYYCAARGRYRIGPGRYGKRYAYWGQGTQVTVSS
  polyreactivity (PSR sort gate): high polyreactivity

## QVQLVESGGGLVQEGGSLRLSCAASGIIFRVYAMGWYRQAPGKERELVATITYSGGITYYADSVKGRFTISRVNAKNTVYLQMNSLKQEDTAGYYPIGVGGDYDYWGQGTQVSVSS
  polyreactivity (PSR sort gate): low polyreactivity

## QVQLVESGGGLVQAGGSLRLSCAASGRIFGTNAMGWYRQAHGKERELVADITSGGSTNYADSVKGRFTISRDNAKNTVYLQMNSLKPEDTAVSYCAADVIGDLPWYRDEYWGQGTQVTVSS
  polyreactivity (PSR sort gate): low polyreactivity

## KVQLVESGGGLVHAGGSLRLSCAASGRTLYTNAMGWYRQAPGTERELVAAITSGASTNYADSVKGRFTISRDNAKNTVYLQMNSLKPEDTAVYYCAARTDHLWNARRYDYWGQGTQVTVSS
  polyreactivity (PSR sort gate): low polyreactivity

## QVQLVESGGGLVQAGGSLRLSCAASGSTFRWYAMGWYRQAPGKERELVAAISGSGGSTYYADSVKGRFTISRDNAKKTVYLQMNSLKPEDTAVYYCNKRYFTYLGEHTVGYWGQGTQVTVSS
  polyreactivity (PSR sort gate): high polyreactivity

## QVQLVESGGGLVQAGGSLRLSCAASGRTIKVYAMGWYRQAPGKERELVAAISYSGAGTRYADSVKGRFTISRDNAKNTVYLQMNSLKPEDTAVYYCNTDAWARVKRYEYWGQGTQVTVSS
  polyreactivity (PSR sort gate): low polyreactivity

## QVQLVESGGGLVQAGGSHRLSCSASGITFYYYAMGWYRQAPGKERELVAAISRSGGRTYYADSVKGRFTISRDNAKNTVYLQMNSLKPEDTAVYYCAAVRYQGGDSSIEYDYWGQGTQVTVSW
  polyreactivity (PSR sort gate): high polyreactivity

## QVHLVESGGGLVQAGGSLRLSCAASGNIFTINAMGWYRQAPGKERDLVARITWGGGNTFYADSVKGRFTISRDNAKNTVYLEMNSLKPEDTAVYYCNAVGPYDYRYGKYDYWGQGTQVTVSS
  polyreactivity (PSR sort gate): low polyreactivity

## QVQLVESGGGLVQAGGSLRFSCAASGRIFYPYAMGWYRQAHGKERELVAAIRRSGVDTYYADSVKGRFTISRDNAKNTVYLQMNSLKPEDTAVYYCAADPYWFFPHYDSWGQGTQVTVSS
  polyreactivity (PSR sort gate): low polyreactivity

## QVQLVESGGGLVQAGGSLRLSCAASGITFYRNARGWYRQAPGKERELVAAITSGTRTYYADSVKGRFTISRDNAKNTVYLQMNSLKPEDTAVYYCAKRGPYYNDDEYYCGQGTQVTVSS
  polyreactivity (PSR sort gate): low polyreactivity

## QVQLVESGGGLVQARGSLRLSCAASGRTFFENAMGWYRQAPGKERELVATITTTGGSTYYADSVKGRFTISRDNAKNTVYLQMNSLKPEYTAVYYCATRGWYLGSRGYRNRYGYWGQGTQVTVSS
  polyreactivity (PSR sort gate): high polyreactivity

## QVQLVESGGGLVQAGGSLRFSCAASGSTFGTYAMGWYRQAPGKERELVAAISWSGGSTYYADSVKGRFTISRDNAKNTVYLQMNSLKPEDPAVYWGQGTQVTVSS
  polyreactivity (PSR sort gate): low polyreactivity

## QVQLVESGGGLVQAGGSLRLSSAASGSIFASYAMGWYRQAPGKERELVAAISRSGGSTYYADSVKGRFTISRDNAKNTVYLQMNSLIPEDTAVYYCATGKIREDDYWGQGTQVTVSS
  polyreactivity (PSR sort gate): high polyreactivity

## QVQLVESGGGLVQAGGSLRLSCAASGRTFGAYAMGLYRQEPGKETELVAAISKSGGRTYYADSVKGRFTISRDYAKNTVYLLMNSLKPEDTAVYYCNARGFRGEYDYWGEGTQVTVSS
  polyreactivity (PSR sort gate): high polyreactivity

## QVQLVESGGGLVQAGGSLRLSCAASGITFTSYAMGWYRQAPGKERELVAAISAGGGRTYYADSVKGRFTISRDNAKNTVYLQMNSLKPEDTAVYYCAVKYPELRTWGYYYWGQGTQVTVSS
  polyreactivity (PSR sort gate): high polyreactivity

## QVQLVESGGGLVQAGGSLRLSCAASGSIFISSDRRLDRQAPGKERALVAAMRSRVGSTYYADSVKGRFTISRENGKNSDYFQMNSLKPEDTAVYYCKKDNAVDRRPWFQVTYVYWVQGTQVTVSS
  polyreactivity (PSR sort gate): low polyreactivity

## QVQLVESGGGLVQAGGSLRLSCAASGRTFYWYTMGWYRQATGKERELVAAISIGGITSYADSVKGRFTISRDNAKNTVYLQMNSLKPEDTAVYYCAAPLSYKNVKYDYWGQGTQVTVSS
  polyreactivity (PSR sort gate): low polyreactivity

## QVQLVESGGGLVQAGGSLRLSCAASGFTFARYAMGWYRQAPGKERELVAAISISGGRTYYADSVKGRFSISRDNAKNTVYLQMNSLKPEDTAVYYCNKGHVPSYDYNYWGQGTQVTVSW
  polyreactivity (PSR sort gate): high polyreactivity

## QVQLVESGGGLVQAGGSLRLSCAASGRTFYNYAMGWYRQAPGKEREFVAAITFRTSSTYYADSVKGRFTISRDNAKNTVYLQMNSLKQEDTAVYYCNADRYWGYDYWGQGTQVTVSS
  polyreactivity (PSR sort gate): high polyreactivity

## QVQLVESGGGLVQAGGSLRLSCAASGSTFWWYAMGWYRQAPGKERELVADITTGGSTNYADSVKGRFTISRDNAKNTVYLQMNSLKPEDTAVYYCNADGVTPYTWRLRYFKYHFDYWGQGTQVTVSS
  polyreactivity (PSR sort gate): low polyreactivity

## QVQLVESGGGLVKAGGSLRLSCAASGFIFNGYAMGWYRQAPGKESELVAAINSGGITHYADSVKGRFTISRDNAKNTVYLQMNSLKPEDTAVYYCAAVRTGYYRQYDYWGQGTQVTVSS
  polyreactivity (PSR sort gate): high polyreactivity

## QVQLVDSGGGLVQAGGSLRLSCAASGFTFADNAMGWYRQAPGKEREFVAAITWTADSTYYADSVKGRFTISRDNAKNTVYVQMNSLKPEDTAVYYCAASYSTIWTLYYYWGQGTQVTVSS
  polyreactivity (PSR sort gate): low polyreactivity

## QVQLVESGGGLVQAGGSLRLSCAASGIIFAANAMGWYRQAPGKERELVAAISKNGGITYYADSVKGRFTISRDTAKNTVYLQMNSLKPEDTAVYYCAARWRQTRRYYYWGQGTQVTVSS
  polyreactivity (PSR sort gate): high polyreactivity

## QVQHVESGGGLLQAGGSLRLSCAASGRIFYGNAMGWYRQATGKERELVAAILWRGGTTYYADSVKGRFTISRDNAMNTVYLLMISLKPEDTSDYNCTADEPYKYYYWGQGTQVTVSS
  polyreactivity (PSR sort gate): low polyreactivity
